Data reported in publication PMC4682175 (2015).

Target: T1, Neogenin (Mus musculus, UniProt P97798)
T1 chain: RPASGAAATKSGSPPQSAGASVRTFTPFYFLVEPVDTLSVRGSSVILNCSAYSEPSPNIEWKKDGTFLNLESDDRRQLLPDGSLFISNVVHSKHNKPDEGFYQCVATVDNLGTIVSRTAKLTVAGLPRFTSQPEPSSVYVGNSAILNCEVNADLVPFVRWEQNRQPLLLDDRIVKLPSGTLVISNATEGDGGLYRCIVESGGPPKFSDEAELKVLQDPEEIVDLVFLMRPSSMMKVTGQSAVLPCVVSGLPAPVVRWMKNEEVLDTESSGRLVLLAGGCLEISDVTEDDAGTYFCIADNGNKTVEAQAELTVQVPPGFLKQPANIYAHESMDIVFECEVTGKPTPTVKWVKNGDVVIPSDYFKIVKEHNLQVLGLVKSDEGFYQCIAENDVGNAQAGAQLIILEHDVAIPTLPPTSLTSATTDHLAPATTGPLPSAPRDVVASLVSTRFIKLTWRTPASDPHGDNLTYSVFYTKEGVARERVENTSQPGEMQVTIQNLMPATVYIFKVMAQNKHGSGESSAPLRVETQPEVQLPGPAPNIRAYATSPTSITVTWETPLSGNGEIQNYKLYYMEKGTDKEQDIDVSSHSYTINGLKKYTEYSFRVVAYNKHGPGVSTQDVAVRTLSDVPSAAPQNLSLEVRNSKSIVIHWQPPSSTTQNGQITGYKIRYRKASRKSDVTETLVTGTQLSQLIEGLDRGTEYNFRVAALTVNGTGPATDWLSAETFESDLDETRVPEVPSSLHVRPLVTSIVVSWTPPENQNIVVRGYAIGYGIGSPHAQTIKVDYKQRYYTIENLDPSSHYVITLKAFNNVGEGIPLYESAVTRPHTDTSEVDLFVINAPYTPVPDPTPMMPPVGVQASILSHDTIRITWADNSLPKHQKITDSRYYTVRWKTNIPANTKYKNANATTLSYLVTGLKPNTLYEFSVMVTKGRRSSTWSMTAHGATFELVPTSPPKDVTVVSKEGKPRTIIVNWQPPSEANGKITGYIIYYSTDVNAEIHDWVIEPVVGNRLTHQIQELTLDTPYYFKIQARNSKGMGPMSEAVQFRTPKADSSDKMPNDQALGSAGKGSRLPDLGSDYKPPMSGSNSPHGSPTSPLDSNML
Experiment: saturation binding of draxin-AP to Neo1-transfected HEK293T cells, Scatchard analysis

Kd: 0.62 nM
B1: Draxin (protein)
chain: GTLASGSSARNLPETHSHLPSSALWVSQASHHGRRGLGKKDRGPGRPSRAQEGAVVTATKQASQMTLGQPPAGLLQNKELLLGLTLPYPEKEARSPAWERVKKRGREHKRRRDRLRLHRGRAAIRGPSSLMKKVEPSEDRMLEGTMEESSTSLAPTMFFLTMTDGATPTTEESRILPVTSLRPQTQPRSDGEVMPTLDMALFDWTDYEDLKPEVWPSAKKKEKHWSHFTSDGNETSPAEGDPCDHHQDCLPGTCCDLREHLCTPHNRGLNNKCFDDCMCMEGLRCYAKFHRNRRVTRRKGRCVEPETANGDQGSFINI
modifications: draxin alkaline phosphatase fusion
